Reference: patent US20170355775A1 (ELANCO TIERGESUNDHEIT, published 2017)

What was measured:
[1] = target: T1, canine CD20 on canine B cells / B cell lymphoma cells (canine, UniProt Q3C2E2 1-297); assay: FACS on canine B cell lymphoma cells expressing canine CD20
T1 construct: whole, on cells; Endogenous CD20 on canine cells
T1 sequence (looked up): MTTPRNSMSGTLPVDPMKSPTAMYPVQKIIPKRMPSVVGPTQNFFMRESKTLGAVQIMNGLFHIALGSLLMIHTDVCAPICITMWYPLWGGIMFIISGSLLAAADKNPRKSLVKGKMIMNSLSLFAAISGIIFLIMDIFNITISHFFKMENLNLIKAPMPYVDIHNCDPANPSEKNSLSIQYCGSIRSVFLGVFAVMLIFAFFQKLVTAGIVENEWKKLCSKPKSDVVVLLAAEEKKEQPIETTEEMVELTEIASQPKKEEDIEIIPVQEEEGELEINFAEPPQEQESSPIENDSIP
Method: The relative affinities of the mouse monoclonal antibodies 1E4, 1G1, and 1G10 for binding to canine CD20 was determined by fluorescent activated cell sorting (FACS) using canine B cell lymphoma cells, which express canine CD20.

[2] = target: T2, canine CD20 ECD2-mFc fusion protein (canine); assay: ELISA, antigen coated at 200 ng/well, antibody 5 ug/ml
T2 construct: also called cCD20 ECD2-mFc
T2 chain: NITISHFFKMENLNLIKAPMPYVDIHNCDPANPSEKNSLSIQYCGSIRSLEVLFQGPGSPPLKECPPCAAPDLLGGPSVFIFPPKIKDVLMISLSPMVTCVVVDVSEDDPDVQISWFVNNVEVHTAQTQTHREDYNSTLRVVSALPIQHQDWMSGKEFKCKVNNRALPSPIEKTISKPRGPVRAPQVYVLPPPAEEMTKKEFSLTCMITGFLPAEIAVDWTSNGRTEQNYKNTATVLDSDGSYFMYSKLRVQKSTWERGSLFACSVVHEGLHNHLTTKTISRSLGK
Method: (§1) This strategy- enabled identification of the specific sequences in canine CD20 that each mAb binds. Binding was tested using a standard ELISA protocol. Briefly, recombinant canine CD20 ECD2-mFc fusion protein and human/canine hybrid variants thereof were diluted in PBS and bound to a 96-well microtiter plate at 200 ng/well by overnight incubation at 4° C. The plate was rinsed three times with PBST buffer, blocked with a solution of 3% BSA in PBS for one hour at 37° C., then rinsed once with PBST. Mouse monoclonal antibodies 1E4, 1G1, and 1G10 were diluted to a concentration of 5 μg/ml in PBS and 50 μl of this dilution was applied to the plate for 1 hour at room temperature. The plate was then rinsed three times with PBST, and Jackson Immunoresearch goat anti-mouse-IgG light chain-specific HRP conjugate (#115-035-174) diluted to 1:5000 in PBS (50 μL) was added to each well, and the plate was incubated for 45 min at room temperature. The plate was washed three times with PBST, then 100 μl of SureBlueTMB substrate (KPL #52-00-03) was added to each well and the plate was incubated for about 10 min at room temperature. The plate was read at 650 nm in a spectrophotometer.

[3] = target: T3, Hum-Can CD20 ECD2 V2 (mFc fusion) (human/canine hybrid); assay: as above
T3 construct: Described as a hybrid version of the original immunogen CD20 ECD2-mFc
T3 chain: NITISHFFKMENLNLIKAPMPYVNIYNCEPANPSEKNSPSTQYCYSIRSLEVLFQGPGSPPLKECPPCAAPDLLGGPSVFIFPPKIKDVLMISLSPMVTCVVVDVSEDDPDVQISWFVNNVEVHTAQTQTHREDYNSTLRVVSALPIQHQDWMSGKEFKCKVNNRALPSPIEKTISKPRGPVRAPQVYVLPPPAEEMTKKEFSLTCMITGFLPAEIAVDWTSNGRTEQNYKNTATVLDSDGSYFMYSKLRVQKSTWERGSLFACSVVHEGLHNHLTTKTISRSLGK
Method: as §1

[4] = target: T4, Hum-Can CD20 ECD2 V3 (mFc fusion) (human/canine hybrid); assay: as above
T4 construct: Described as a hybrid version of the original immunogen CD20 ECD2-mFc
T4 chain: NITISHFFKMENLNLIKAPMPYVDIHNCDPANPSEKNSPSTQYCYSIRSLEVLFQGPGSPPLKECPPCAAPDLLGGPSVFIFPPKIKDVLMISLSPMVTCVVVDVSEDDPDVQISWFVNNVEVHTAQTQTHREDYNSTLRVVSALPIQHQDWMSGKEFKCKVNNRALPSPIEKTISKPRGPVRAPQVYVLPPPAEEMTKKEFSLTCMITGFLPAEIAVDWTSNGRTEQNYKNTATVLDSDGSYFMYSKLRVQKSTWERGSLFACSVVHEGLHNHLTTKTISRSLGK
Method: as §1

[5] = target: T5, Hum-Can CD20 ECD2 V4 (mFc fusion) (human/canine hybrid); assay: as above
T5 construct: Described as a hybrid version of the original immunogen CD20 ECD2-mFc
T5 chain: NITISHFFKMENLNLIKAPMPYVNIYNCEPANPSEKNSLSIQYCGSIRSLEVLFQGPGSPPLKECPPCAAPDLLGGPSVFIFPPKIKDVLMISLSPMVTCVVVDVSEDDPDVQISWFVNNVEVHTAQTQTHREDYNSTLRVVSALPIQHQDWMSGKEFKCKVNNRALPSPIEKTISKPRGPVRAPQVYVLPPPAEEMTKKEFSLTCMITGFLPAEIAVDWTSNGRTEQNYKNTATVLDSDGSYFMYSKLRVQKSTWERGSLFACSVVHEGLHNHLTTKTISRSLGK
Method: as §1

Kd [1]: 19.8 nM
binding result [2]: binds
binding result [3]: binds
binding result [4]: binds
binding result [5]: binds
B1: mouse monoclonal antibody 1G1 (antibody, V domains shown)
VH: EVQLQQSGAELVRPGASVKLSCTASGFNIKDDYMHWVKQRPEQGLEWIGWIDPENGHTKYASKFQGKATITADTSSNTAYLQLSSLTSEDTAVYYCTSLRHYYGSSYVSPHYYWGQGTTLTVSS
VL: DIVMTQSQKFMSRSVGDRVSVTCKASQNVGPNVAWYQQRPGQSPKPLIYSASYRYSGVPDRFTGSGSGTDFTLTISNVQSEDLAEYFCQQYNNYPYTFGGGTKLEIK
notes: Mouse monoclonal antibody from a hybridoma; also called hybridoma antibody 1G1
